Reference: the supplement of paper PMC9112550, “Optimization of the antimicrobial peptide Bac7 by deep mutational scanning” (BMC Biology, 2022)

System: Escherichia coli TOP10
Assay: shrunken log2 fold change of peptide-encoding DNA abundance (4.5 h post-induction vs induction); higher = less antimicrobial activity (less host growth inhibition)
Settings: time post-induction: 4.5 h; library: site-saturation at positions 5, 18, 19, 20
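Note: peptides expressed intracellularly from a pBAD plasmid library in pooled LB shake-flask culture, induced with 0.3% L-arabinose, DNA abundance read by NGS, three biological replicates, DESeq2 with apeglm shrinkage.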

Row | Sequence | shrunken log2 fold change
1 | RRIRSRPPRLPRPRPRPAMMPRP | -0.0721
2 | RRIRFRPPRLPRPRPRPHTVPRP | 0.0365
3 | RRIRHRPPRLPRPRPRPLGKPRP | -0.239
4 | RRIRLRPPRLPRPRPRPNKEPRP | 0.0626
5 | RRIRWRPPRLPRPRPRPSFFPRP | 0.0041
6 | RRIRYRPPRLPRPRPRPATVPRP | -0.042
7 | RRIRDRPPRLPRPRPRPAYFPRP | 0.128
8 | RRIRWRPPRLPRPRPRPIHFPRP | -0.357
9 | RRIRNRPPRLPRPRPRPKNAPRP | -0.0561
10 | RRIRRRPPRLPRPRPRPANNPRP | -0.0615
11 | RRIRSRPPRLPRPRPRPPDQPRP | 0.674
12 | RRIRNRPPRLPRPRPRPVFKPRP | -0.183
13 | RRIRHRPPRLPRPRPRPSEEPRP | -0.00149
14 | RRIRERPPRLPRPRPRPRTQPRP | 0.111
15 | RRIRCRPPRLPRPRPRPYDIPRP | 0.0852
16 | RRIRMRPPRLPRPRPRPLKNPRP | -0.0484
17 | RRIRQRPPRLPRPRPRPRAWPRP | 0.123
18 | RRIRERPPRLPRPRPRPFMQPRP | -0.178
19 | RRIRCRPPRLPRPRPRPPKLPRP | 0.0685
20 | RRIRERPPRLPRPRPRPTHDPRP | -0.141
21 | RRIRTRPPRLPRPRPRPEPSPRP | 0.534
22 | RRIRIRPPRLPRPRPRPGDWPRP | 0.585
23 | RRIRYRPPRLPRPRPRPLACPRP | -0.319

Row | Sequence | shrunken log2 fold change
24 | RRIRARPPRLPRPRPRPKDGPRP | 0.298
25 | RRIRHRPPRLPRPRPRPYPAPRP | -0.425
26 | RRIRVRPPRLPRPRPRPDEQPRP | 0.353
27 | RRIRQRPPRLPRPRPRPVWWPRP | 0.015
28 | RRIRNRPPRLPRPRPRPFFTPRP | -0.147
29 | RRIRERPPRLPRPRPRPEAEPRP | 0.315
30 | RRIRKRPPRLPRPRPRPPMEPRP | 0.135
31 | RRIRTRPPRLPRPRPRPKWMPRP | 0.00414
32 | RRIRNRPPRLPRPRPRPPYAPRP | 0.161
33 | RRIRIRPPRLPRPRPRPAYYPRP | -0.401
34 | RRIRFRPPRLPRPRPRPYAIPRP | -0.536
35 | RRIRKRPPRLPRPRPRPAAFPRP | 0.59
36 | RRIRFRPPRLPRPRPRPTEHPRP | -0.316
37 | RRIRNRPPRLPRPRPRPDPYPRP | -0.319
38 | RRIRARPPRLPRPRPRPFEEPRP | 0.424
39 | RRIRIRPPRLPRPRPRPWEKPRP | -0.00992
40 | RRIRQRPPRLPRPRPRPLARPRP | 0.26
41 | RRIRRRPPRLPRPRPRPYNKPRP | -0.664
42 | RRIRQRPPRLPRPRPRPMSLPRP | -0.13
43 | RRIRIRPPRLPRPRPRPKRDPRP | -0.106
44 | RRIRYRPPRLPRPRPRPRSVPRP | -0.0717
45 | RRIRMRPPRLPRPRPRPKCMPRP | 0.745
46 | RRIRMRPPRLPRPRPRPLHHPRP | -0.0632

Row | Sequence | shrunken log2 fold change
47 | RRIRDRPPRLPRPRPRPDYKPRP | 0.00454
48 | RRIRKRPPRLPRPRPRPSPAPRP | 0.478
49 | RRIRCRPPRLPRPRPRPMLFPRP | 0.545
50 | RRIRVRPPRLPRPRPRPDWRPRP | 0.141
51 | RRIRMRPPRLPRPRPRPEDVPRP | -0.0102
52 | RRIRSRPPRLPRPRPRPGSGPRP | 0.32
53 | RRIRPRPPRLPRPRPRPIGCPRP | -0.0888
54 | RRIRTRPPRLPRPRPRPQWGPRP | -0.0978
55 | RRIRARPPRLPRPRPRPRLAPRP | 1.53
56 | RRIRYRPPRLPRPRPRPWDGPRP | -0.196
57 | RRIRARPPRLPRPRPRPKHLPRP | 0.417
58 | RRIRSRPPRLPRPRPRPCDDPRP | 0.161
59 | RRIRDRPPRLPRPRPRPVKCPRP | -0.117
60 | RRIRTRPPRLPRPRPRPARNPRP | 0.199
61 | RRIRHRPPRLPRPRPRPWCGPRP | -0.181
62 | RRIRSRPPRLPRPRPRPSLQPRP | -0.606
63 | RRIRDRPPRLPRPRPRPGVFPRP | -0.00239
64 | RRIRDRPPRLPRPRPRPLPRPRP | 0.391
65 | RRIRSRPPRLPRPRPRPRLMPRP | 0.198
66 | RRIRFRPPRLPRPRPRPSTQPRP | -0.503
67 | RRIRARPPRLPRPRPRPLMGPRP | 0.489
68 | RRIRMRPPRLPRPRPRPRKMPRP | 0.356
69 | RRIRERPPRLPRPRPRPYIQPRP | -0.184

Row | Sequence | shrunken log2 fold change
70 | RRIRSRPPRLPRPRPRPTLSPRP | 0.0887
71 | RRIRTRPPRLPRPRPRPDNAPRP | -0.223
72 | RRIRPRPPRLPRPRPRPLYCPRP | -0.548
73 | RRIRERPPRLPRPRPRPEWIPRP | 0.064
74 | RRIRYRPPRLPRPRPRPAKMPRP | -0.329
75 | RRIRVRPPRLPRPRPRPVQNPRP | -0.029
76 | RRIRPRPPRLPRPRPRPIDIPRP | -0.252
77 | RRIRERPPRLPRPRPRPRHGPRP | -0.467
78 | RRIRQRPPRLPRPRPRPDSDPRP | -0.159
79 | RRIRYRPPRLPRPRPRPGESPRP | 0.224
80 | RRIRFRPPRLPRPRPRPLCRPRP | -0.406
81 | RRIRYRPPRLPRPRPRPWAQPRP | -0.37
82 | RRIRVRPPRLPRPRPRPYRAPRP | -0.201
83 | RRIRQRPPRLPRPRPRPDTVPRP | -0.171
84 | RRIRCRPPRLPRPRPRPFRKPRP | -0.0377
85 | RRIRGRPPRLPRPRPRPEHPPRP | 0.281
86 | RRIRGRPPRLPRPRPRPQGSPRP | -0.0808
87 | RRIRGRPPRLPRPRPRPTKFPRP | 0.458
88 | RRIRPRPPRLPRPRPRPKAYPRP | -0.029
89 | RRIRRRPPRLPRPRPRPGLTPRP | 0.508
90 | RRIRVRPPRLPRPRPRPSGTPRP | -0.298
91 | RRIRARPPRLPRPRPRPCAPPRP | 0.384
